Measurements published in PMC4980223 (Immunology and cell biology, 2016).

Target: the molecule itself
Test: SEC

B1: recombinant, soluble SRCR trimer (HIS6-SRCR, MARCO residues 400-520) (domain or fragment, human, UniProt Q9UEW3 400-520, looked up)
chain: GVKGSSGEQGVKGEKGERGENSVSVRIVGSSNRGRAEVYYSGTWGTICDDEWQNSDAIVFCRMLGYSKGRALYKVGAGTGQIWLDNVQCRGTESTLWSCTKNSWGHHDCSHEEDAGVECSV
- stoichiometry N: 3
